Source: patent US20220363757A1 (SYMPHOGEN A S, published 2022)
Numbering of substitutions follows the chain as printed.

B1: Fab fragment of antibody 15011 (Fab, V domains shown, not shown: a dimerising Fc or GST)
VH: EVQLLESGGGLVQPGGSLRLSCAASGFDFRSYAMMWVRQAPGKGLEWVGGINGEVGGSNTYYAPAVKGRATISRDNSKNTLYLQMNSLRAEDTAVYYCVKGAGACGICNDDIDAWGQGTLVTVSS
VL: SYELTQDPAVSVALGQTVRITCSGAGSYAGSYYYGWHQQKPGQAPVTVIYDNDKRPSNIPDRFSGSSSGNTASLTITGAQAEDEADYYCGSTNDNDDGGLFGSGTKVTVLG
notes: monomeric Fab made by GingisKHAN digestion of the IgG1
B2: Fab fragment of antibody 15572 (Fab, V domains shown, not shown: a dimerising Fc or GST)
VH: QLQLQESGPGLVKPSETLSLTCTVSGDSISSSSYYWGWIRQPPGKGLEWIGSIFYSGNTYYNPSLKSRVTISVDTSKNQFSLKLSSVTAADTAVYYCAREDDFLTDYYGAFDIWGQGTMVTVSS
VL: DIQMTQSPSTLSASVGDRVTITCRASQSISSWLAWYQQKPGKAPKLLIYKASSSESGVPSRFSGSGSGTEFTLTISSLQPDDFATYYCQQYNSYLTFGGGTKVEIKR
notes: as for B1
B3: Fab fragment of antibody 15532 (Fab, V domains shown, not shown: a dimerising Fc or GST)
VH: QVQLQQWGAGLLRPSETLSLTCAVYGESFSGYYWNWIRQPPGKGLEWIGEINHSGSTNYNPSLKSRVTISVDTSKTQFSLKLSSVTAADTAVYYCARGWDLLDWNDYWNEYWGQGTLVTVSS
VL: EIVLTQSPATLSLSPGERATLSCRASQSVSSYLAWYQQKPGQAPRLLIYDASNRATGIPARFSGSGSGTDFTLTISSLEPEDFAVYYCQQRSNWPLTFGGGTKVEIKR
notes: as for B1
B4: Fab fragment of antibody 15431 (Fab, V domains shown, not shown: a dimerising Fc or GST)
VH: QVQLQQSGPGLVKPSQTLSLTCAISGDSVSSNSAAWNWIRQSPSRGLEWLGRTYYRSKWYNDYAVSVKSRITINPDTSKNQFSLQLNSVTPEDTAVYYCARDDDWNDFDYWGQGTLVTVSS
VL: B3 VL
notes: as for B1

What was measured:
Assay in all cases: SPR, Fab over captured mutant LAG-3-Fc;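 note: fc fusion variants captured on anti-human IgG Fc sensor, Fab injected with association then dissociation phases, KD obtained from Langmuir one-to-one fit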
[1] = target: T1, human LAG-3 domain 1-2 Fc fusion, point mutation #37 S90A (human, UniProt P18627 23-266)
T1 construct: not shown: human IgG1 Fc, AA P101-K330
T1 sequence: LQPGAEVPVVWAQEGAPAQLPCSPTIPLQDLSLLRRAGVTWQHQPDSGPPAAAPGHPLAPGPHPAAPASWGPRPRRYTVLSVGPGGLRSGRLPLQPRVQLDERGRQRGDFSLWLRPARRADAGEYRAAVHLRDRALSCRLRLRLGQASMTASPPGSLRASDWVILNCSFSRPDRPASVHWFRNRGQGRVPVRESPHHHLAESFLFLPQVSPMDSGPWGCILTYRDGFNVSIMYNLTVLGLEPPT

[2] = target: T2, human LAG-3 domain 1-2 Fc fusion, point mutation #58 P115A (human, UniProt P18627 23-266)
T2 construct: not shown: human IgG1 Fc, AA P101-K330
T2 sequence: T1 sequence with A68S, P93A

[3] = target: T3, human LAG-3 domain 1-2 Fc fusion, point mutation #77 R148A (human, UniProt P18627 23-266)
T3 construct: not shown: human IgG1 Fc, AA P101-K330
T3 sequence: T1 sequence with A68S, R126A

[4] = target: T4, human LAG-3 domain 1-2 Fc fusion, point mutation #24 G77A (human, UniProt P18627 23-266)
T4 construct: not shown: human IgG1 Fc, AA P101-K330
T4 sequence: T1 sequence with G55A, A68S

[5] = target: T5, human LAG-3 domain 1-2 Fc fusion, point mutation #71 D131A (human, UniProt P18627 23-266)
T5 construct: not shown: human IgG1 Fc, AA P101-K330
T5 sequence: T1 sequence with A68S, D109A

[6] = target: T6, human LAG-3 domain 1-2 Fc fusion, point mutation #32 H85A (human, UniProt P18627 23-266)
T6 construct: not shown: human IgG1 Fc, AA P101-K330
T6 sequence: T1 sequence with H63A, A68S

[7] = target: T7, human LAG-3 domain 1-2 Fc fusion, point mutation #54 R110A (human, UniProt P18627 23-266)
T7 construct: not shown: human IgG1 Fc, AA P101-K330
T7 sequence: T1 sequence with A68S, R88A

[8] = target: T8, human LAG-3 domain 1-2 Fc fusion, point mutation #12 R57A (human, UniProt P18627 23-266)
T8 construct: not shown: human IgG1 Fc, AA P101-K330
T8 sequence: T1 sequence with R35A, A68S

[9] = target: T9, human LAG-3 domain 1-2 Fc fusion, point mutation #66 G126A (human, UniProt P18627 23-266)
T9 construct: not shown: human IgG1 Fc, AA P101-K330
T9 sequence: T1 sequence with A68S, G104A

| Binder | KD mutant/KD wild type [1] | KD mutant/KD wild type [2] | KD mutant/KD wild type [3] | KD mutant/KD wild type [4] | KD mutant/KD wild type [5] | KD mutant/KD wild type [6] | binding result [7] | KD mutant/KD wild type [8] | KD mutant/KD wild type [9] | binding result [3] | binding result [5] | KD mutant/KD wild type [7] |
| --- | --- | --- | --- | --- | --- | --- | --- | --- | --- | --- | --- | --- |
| B1 | 0.9 fold | 1.3 fold | 0.7 fold | 0.8 fold | 0.6 fold | 0.9 fold | no binding (tested: 300 nM) | 0.7 fold | 0.9 fold |  |  |  |
| B2 | 0.8 fold | 1.4 fold |  | 0.7 fold |  | 0.7 fold |  | 0.8 fold | 0.9 fold | no binding (tested: 300 nM) | no binding (tested: 300 nM) | 0.6 fold |
| B3 | 0.6 fold | 1 fold | 2.9 fold | 1 fold | 4.2 fold | 7.2 fold |  | 1.1 fold | 0.9 fold |  |  | 0.9 fold |
| B4 | 0.9 fold | 1.1 fold |  | 0.7 fold |  | 0.8 fold |  | 0.6 fold | 0.9 fold | no binding (tested: 300 nM) | no binding (tested: 300 nM) | 0.9 fold |
